Reference: patent US20160017037A1 (GlaxoSmithKline, published 2016)
Substitutions are numbered along the chain they refer to.

T1: Fc-tagged recombinant soluble LAG-3 (IMP321) (human, UniProt P18627 23-434)
T1 construct: also called LAG3-Ig molecule IMP321; recombinant sLAG-3; not shown: Fc / Ig part
T1 sequence (looked up): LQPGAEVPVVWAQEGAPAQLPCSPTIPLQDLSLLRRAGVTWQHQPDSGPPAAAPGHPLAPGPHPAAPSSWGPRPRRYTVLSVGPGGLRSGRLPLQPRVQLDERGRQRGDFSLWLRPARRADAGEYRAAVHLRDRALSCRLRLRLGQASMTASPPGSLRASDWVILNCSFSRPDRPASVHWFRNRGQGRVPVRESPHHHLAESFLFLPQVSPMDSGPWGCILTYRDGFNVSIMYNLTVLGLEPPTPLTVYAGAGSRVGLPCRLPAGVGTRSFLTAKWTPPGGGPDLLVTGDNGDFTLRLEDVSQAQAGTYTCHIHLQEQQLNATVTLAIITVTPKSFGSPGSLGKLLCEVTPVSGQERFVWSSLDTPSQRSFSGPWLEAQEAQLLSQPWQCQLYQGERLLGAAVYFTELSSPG

B1: H1L7 (antibody, human IgG1, kappa, V domains shown)
VH: QVQLQESGPGLVKPSETLSLTCTVSGFSLTAYGVNWIRQPPGKGLEWIGMIWDDGSTDYNSALKSRVTISVDTSKNQFSLKLSSVTAADTAVYYCAREGDVAFDYWGQGTLVTVSS
VL: DIQMTQSPSSLSASVGDRVTITCKSSQSLLNPSNQKNYLAWYQQKPGKAPKLLVYFASTRDSGVPSRFSGSGSGTDFTLTISSLQPEDFATYYCLQHFGTPPTFGQGTKLEIKR
notes: Humanised anti-LAG-3 variant, HEK 293 6E expressed
B2: J7L7 (antibody, human IgG1, kappa, V domains shown)
VH: QVQLVQSGAEVKKPGSSVKVSCKASGFSLTAYGVNWVRQAPGQGLEWMGMIWDDGSTDYNSALKSRVTITADKSTSTAYMELSSLRSEDTAVYYCAREGDVAFDYWGQGTLVTVSS
VL: B1 VL
notes: as for B1
B3: J13L7 (antibody, human IgG1, kappa, V domains shown)
VH: B2 VH with F27G, S28T, L29F, T30S, N60D
VL: B1 VL
notes: as for B1
B4: H2L7 (antibody, human IgG1, kappa, V domains shown)
VH: B1 VH with V71K, T73N, F78V
VL: B1 VL
notes: as for B1
B5: H7L7 (antibody, human IgG1, kappa, V domains shown)
VH: B1 VH with F27G, L29I, T30S, N60D
VL: B1 VL
notes: as for B1
B6: H4L7 (antibody, human IgG1, kappa, V domains shown)
VH: B1 VH with I48L, V67L, V71K, T73N, F78V
VL: B1 VL
notes: as for B1
B7: H0L7 (antibody, human IgG1, kappa, V domains shown)
VH: B1 VH with F27G, L29I, T30S
VL: B1 VL
notes: as for B1
B8: J11L7 (antibody, human IgG1, kappa, V domains shown)
VH: B2 VH with N60D
VL: B1 VL
notes: as for B1
B9: J0L7 (antibody, human IgG1, kappa, V domains shown)
VH: B2 VH with F27G, S28T, L29F, T30S
VL: B1 VL
notes: as for B1

Target: T1, Fc-tagged recombinant soluble LAG-3 …
Assay: SPR Biacore 3000, off-rate comparison with IMP731, IMP321 analyte at 64 nM
Procedure: The binding kinetics of the purified antibodies for a sLAG-3 molecule were assessed by SPR using a Biacore™ 3000. A goat anti-human kappa antibody (Southern Biotech, Catalogue No. 2060-01) was immobilised on a CM5 chip by primary amine coupling. Humanised anti-LAG3 antibodies were captured on this surface and the LAG3-Ig molecule IMP321 (Chrystelle Brignone, Caroline Grygar, Manon Marcu, Knut Schakel, Frederic Triebel, The Journal of Immunology, 2007, 179: 4202-4211) used as the analyte at 64 nM with a buffer injection (i.e. 0 nM) used to double reference the binding curves. Regeneration was with 10 mM Glycine, pH1.5. The run was carried out on the Biacore™ 3000, using HBS-EP as running buffer and at 25° C. Sensorgrams were normalised for binding at maximal association and off-rates compared against IMP731 by visual inspection of the sensorgram profiles.

Row | Binder | Rank order of off-rates
1 | B1 | 2
2 | B2 | 3
3 | B3 | 7
4 | B4 | 6
5 | B5 | 8
6 | B6 | 4
7 | B7 | 10
8 | B8 | 5
9 | B9 | 9
